This note sets out measurements from US20200317768A1 (published 2020).

Where a chain is given by its changes, count along the chain named.

Experiment [1] deals with T1, cynomolgus monkey FcγRIIb extracellular domain, C-terminal His-tag (cynomolgus monkey).
T1 construct: also called cyno FcγRIIb; cynoFcγRIIb; not shown: His-tag added to C-terminus
T1 chain: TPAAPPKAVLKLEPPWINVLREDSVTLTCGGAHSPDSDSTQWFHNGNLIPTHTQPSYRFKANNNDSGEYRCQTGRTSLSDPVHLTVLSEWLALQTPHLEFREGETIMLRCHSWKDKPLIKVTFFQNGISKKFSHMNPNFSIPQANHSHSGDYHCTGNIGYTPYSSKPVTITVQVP
Kind of experiment: SPR (BIACORE); KD of parent SG1 / KD of variant.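 Note: relative to parent M103205H795-SG1 carrying the SG1 human heavy chain constant region.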 For orientation: Surface plasmon resonance follows binding to a sensor surface in real time, without labels.

Experiment [2] addresses T2, cynomolgus monkey FcγRIIa3 extracellular domain, C-terminal His-tag (cynomolgus monkey).
T2 construct: also called cyno FcγRIIa3; cynoFcgRIIa3; not shown: His-tag added to C-terminus
T2 chain: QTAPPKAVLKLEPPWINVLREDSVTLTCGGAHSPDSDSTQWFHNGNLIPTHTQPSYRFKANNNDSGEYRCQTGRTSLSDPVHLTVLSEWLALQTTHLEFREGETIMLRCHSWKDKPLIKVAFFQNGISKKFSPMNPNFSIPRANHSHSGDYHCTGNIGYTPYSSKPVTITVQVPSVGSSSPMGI
Kind of experiment: SPR (BIACORE); KD of parent SG1 / KD of variant.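 Note: relative to parent M103205H795-SG1 carrying the SG1 human heavy chain constant region.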

For experiment [3], the target named is T3, human FcγRIIIaV extracellular domain, C-terminal His-tag (human, UniProt P08637 17-208).
T3 construct: also called FcgRIIIaV; not shown: His-tag added to C-terminus
T3 sequence (P08637 17-208 F176V): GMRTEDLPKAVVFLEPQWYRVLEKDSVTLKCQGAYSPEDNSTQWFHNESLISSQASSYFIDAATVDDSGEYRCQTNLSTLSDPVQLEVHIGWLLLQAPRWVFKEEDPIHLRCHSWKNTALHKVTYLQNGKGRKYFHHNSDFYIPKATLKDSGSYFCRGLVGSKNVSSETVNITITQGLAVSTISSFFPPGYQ
The experiment in a line: SPR (BIACORE); KD of parent SG1 / KD of variant.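 Note: relative to parent M103205H795-SG1 carrying the SG1 human heavy chain constant region.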

In experiment [4] the target is T4, human FcγRIIaH extracellular domain, C-terminal His-tag (human, UniProt P12318 34-217).
T4 construct: also called human FcγRIIa (type H); FcgRIIaH; not shown: His-tag added to C-terminus
T4 sequence: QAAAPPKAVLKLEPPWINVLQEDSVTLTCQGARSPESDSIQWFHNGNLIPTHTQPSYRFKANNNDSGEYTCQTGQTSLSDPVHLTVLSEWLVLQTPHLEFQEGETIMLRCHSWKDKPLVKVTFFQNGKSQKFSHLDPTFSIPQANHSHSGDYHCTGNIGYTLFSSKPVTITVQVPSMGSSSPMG
Kind of experiment: SPR (BIACORE); KD of parent SG1 / KD of variant.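 Note: relative to parent M103205H795-SG1 carrying the SG1 human heavy chain constant region.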

For experiment [5], the target named is T5, human FcγRIIb extracellular domain, C-terminal His-tag (human, UniProt P31994 43-217).
T5 construct: also called humanFcgRIIb; not shown: His-tag added to C-terminus
T5 sequence: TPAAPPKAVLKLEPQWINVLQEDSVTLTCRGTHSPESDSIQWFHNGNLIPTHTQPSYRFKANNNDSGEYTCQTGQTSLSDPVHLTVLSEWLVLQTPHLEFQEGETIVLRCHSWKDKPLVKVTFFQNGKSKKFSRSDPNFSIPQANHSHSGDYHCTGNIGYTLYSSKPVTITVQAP
The experiment in a line: SPR (BIACORE), antibody captured, FcγR analyte.

Experiment [6] deals with T1, cynomolgus monkey FcγRIIb extracellular …. The experiment in a line: SPR (BIACORE), antibody captured, FcγR analyte.
Experiment [7] addresses T2, cynomolgus monkey FcγRIIa3 …. The experiment in a line: SPR (BIACORE), antibody captured, FcγR analyte.
For experiment [8], the target named is T6, cynomolgus monkey FcγRIIa2 extracellular domain, C-terminal His-tag (cynomolgus monkey).
T6 construct: also called cyno FcγRIIa2; cynoFcgRIIa2; not shown: His-tag added to C-terminus
T6 chain: T2 chain with I127K, K130N, P133H, R142Q
Kind of experiment: SPR (BIACORE), antibody captured, FcγR analyte.

Experiment [9] deals with T3, human FcγRIIIaV extracellular domain, …. Kind of experiment: SPR (BIACORE), antibody captured, FcγR analyte.
Experiment [10] concerns the target T7, human FcγRIIaR extracellular domain, C-terminal His-tag (human, UniProt P12318 34-217).
T7 construct: also called human FcγRIIa (type R); FcgRIIaR; not shown: His-tag added to C-terminus
T7 chain: T4 sequence with H134R
Kind of experiment: SPR (BIACORE), antibody captured, FcγR analyte.

In experiment [11] the target is T8, cynomolgus monkey FcγRIIa1 extracellular domain, C-terminal His-tag (cynomolgus monkey).
T8 construct: also called cyno FcγRIIa1; cynoFcgRIIa1; not shown: His-tag added to C-terminus
T8 chain: T2 chain with T95P, A121T, S128A, P133H, N135D
Kind of experiment: SPR (BIACORE), antibody captured, FcγR analyte.

B1: MS_M103205H795-SG1/M103202L889-SK1 (antibody, human IgG1, kappa)
heavy: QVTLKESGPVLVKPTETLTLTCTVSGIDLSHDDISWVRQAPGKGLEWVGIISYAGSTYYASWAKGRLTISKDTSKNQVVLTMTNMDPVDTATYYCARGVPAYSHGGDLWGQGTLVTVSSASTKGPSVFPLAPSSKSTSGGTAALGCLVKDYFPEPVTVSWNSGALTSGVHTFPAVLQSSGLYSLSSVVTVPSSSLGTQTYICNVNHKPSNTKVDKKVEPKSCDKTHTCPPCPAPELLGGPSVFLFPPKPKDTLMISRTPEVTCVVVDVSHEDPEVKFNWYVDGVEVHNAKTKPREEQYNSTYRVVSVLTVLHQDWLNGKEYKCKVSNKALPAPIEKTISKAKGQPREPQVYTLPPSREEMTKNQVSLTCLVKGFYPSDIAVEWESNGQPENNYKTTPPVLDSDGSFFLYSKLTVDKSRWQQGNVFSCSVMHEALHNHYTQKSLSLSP
light: DIVMTQSPATLSLSPGERATLSCTSSQSVYHANWLSWFQQKPGQPPKLLIYWASTLAYGVPSRFSGSGSGTDFTLTISSLQPEDAATYYCAGGYGGGRYAFGQGTKVEIKRTVAAPSVFIFPPSDEQLKSGTASVVCLLNNFYPREAKVQWKVDNALQSGNSQESVTEQDSKDSTYSLSSTLTLSKADYEKHKVYACEVTHQGLSSPVTKSFNRGEC
notes: Parent antibody with SG1 human heavy chain constant region; also called MS1032LO06-SG1
In general, Kd refers to the equilibrium constant for the complex coming apart. For B1, the “KD fold (SG1 = 1)” value in experiment [1], in [2], in experiment [3] and in experiment [4] was 1 fold throughout. For the same molecule, the Kd in experiment [5] came out at 4.7 µM; in experiment [6], 1.9 µM; in [7], 8.6 µM; in [8], 4.7 µM; in experiment [9], 0.62 µM; in experiment [10], 1 µM. In experiment [11], this molecule showed a Kd of 4.8 µM.
